Laboratory results as given in patent publication US20140087995A1 (published 2014).
Numbered stars: 1 amine (or outer) side, 2 acyl side, 3 side chain; on linkers, the order of the positions; unused ones are H or OH. Bridge positions count the residues as written; N and C are the ends. Side chains are listed from the residue outwards. Ends that are not written are not given here. * marks the point of attachment. C20 diacid = O=C(O)CCCCCCCCCCCCCCCCCCC(=O)*; γGlu = O=C(O)[C@H](CCC(=O)[*:2])N[*:1]; AEEA = NCCOCCOCC(=O)O

T1: rat calcitonin receptor (rat, UniProt P32214 25-516)
T1 construct: whole, on cells; Used as membranes prepared from the transfected cells; also called rCTR; rCT
T1 sequence (looked up): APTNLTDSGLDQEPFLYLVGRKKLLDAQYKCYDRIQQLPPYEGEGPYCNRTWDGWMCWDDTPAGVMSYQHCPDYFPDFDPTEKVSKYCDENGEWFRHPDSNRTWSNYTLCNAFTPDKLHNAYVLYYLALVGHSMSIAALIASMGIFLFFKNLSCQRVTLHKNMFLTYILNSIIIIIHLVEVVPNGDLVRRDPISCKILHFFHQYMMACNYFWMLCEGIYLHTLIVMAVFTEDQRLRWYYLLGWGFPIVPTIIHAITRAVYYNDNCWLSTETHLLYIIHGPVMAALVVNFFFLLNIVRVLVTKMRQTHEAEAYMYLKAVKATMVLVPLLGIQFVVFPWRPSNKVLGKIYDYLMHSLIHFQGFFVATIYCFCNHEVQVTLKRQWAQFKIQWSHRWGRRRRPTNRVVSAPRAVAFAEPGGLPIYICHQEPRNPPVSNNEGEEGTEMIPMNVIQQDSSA

T2: human calcitonin receptor (human, UniProt P30988 25-474)
T2 construct: whole, on cells; Used as membranes prepared from the transfected cells; also called hCTR; hCT
T2 sequence (looked up): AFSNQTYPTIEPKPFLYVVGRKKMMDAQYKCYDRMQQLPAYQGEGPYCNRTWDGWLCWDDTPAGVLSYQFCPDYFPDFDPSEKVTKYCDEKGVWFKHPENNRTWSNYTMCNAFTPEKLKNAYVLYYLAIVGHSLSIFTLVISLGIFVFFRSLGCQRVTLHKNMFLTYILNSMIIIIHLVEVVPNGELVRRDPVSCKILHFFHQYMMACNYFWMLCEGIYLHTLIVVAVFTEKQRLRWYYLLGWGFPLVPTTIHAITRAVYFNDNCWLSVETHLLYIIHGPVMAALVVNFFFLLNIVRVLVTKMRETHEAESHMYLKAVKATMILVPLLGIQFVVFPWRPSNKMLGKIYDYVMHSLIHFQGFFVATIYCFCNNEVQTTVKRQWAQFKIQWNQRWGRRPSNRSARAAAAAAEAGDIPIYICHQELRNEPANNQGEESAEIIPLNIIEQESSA


Key:
rat calcitonin receptor [1] = biological target: T1, rat calcitonin receptor; experiment: SPA competition with 125I-calcitonin, membranes with rat calcitonin receptor (Assay VIII)
rat calcitonin receptor [2] = biological target: T1, rat calcitonin receptor; experiment: ratio of binding IC50 at rat calcitonin receptor to IC50 at rat amylin receptor (reference)
[3] = biological target: T2, human calcitonin receptor; experiment: ratio of binding IC50 at human calcitonin receptor to IC50 at human amylin receptor (reference)
Experimental: The resulting pellet was resuspended, homogenized and centrifuged (20.000 rpm, 15 min) in a buffer containing 20 mM Na-HEPES and 0.1 mM EDTA (pH 7.4, buffer 2). The resulting pellet was resuspended in buffer 2 and protein concentration was measured (BCA protein Assay, Pierce). The homogenate was kept cold during the whole procedure. The membranes were kept at −80° C. until use. The assay was performed in a 384 well Optiplate (PerkinElmer) in a total volume of 40 ul. Membranes were mixed with SPA beads. Final concentration of membranes 35 ng/μL final and SPA beads was 0.05 mg/well. Test-compounds were dissolved in DMSO and further diluted in assay buffer (50 mM Hepes, pH 7.4, 1 mM CaCl2, 5 mM MgCl₂, 0.1% OA and 0.02% Tween20). […] The final mixture was incubated with shaking at 400 rpm for 120 min at 25° C. prior to centrifugation (1500 rpm, 10 min). Samples were analyzed on TopCounter™ (Packard). The IC₅₀ was calculated using (one site binding competition analysis) GraphPad Prism5 as a measure of receptor affinity.
Membranes were prepared in the following way; the cells were rinsed with PBS and incubated with Versene for approximately 5 min before harvesting. The cells were flushed with PBS and the cell-suspension was centrifuged for 5 min at 1000 rpm. Cells were homogenized (Ultrathurrax) in a buffer containing 20 mM Na-HEPES and 10 mM EDTA (pH 7.4) and centrifuged at 20.000 rpm for 15 min. The resulting pellet was resuspended, homogenized and centrifuged (20.000 rpm, 15 min) in a buffer containing 20 mM Na-HEPES and 0.1 mM EDTA (pH 7.4, buffer 2). The resulting pellet was resuspended in buffer 2 and protein concentration was measured (BCA protein Assay, Pierce). The homogenate was kept cold during the whole procedure. The membranes were kept at −80° C. until use. Assay was performed in a 384 well Optiplate (PerkinElmer) in a total volume of 40 ul. Membranes were mixed with SPA beads.

Row | Binder | IC50 (rat calcitonin receptor [1]) [nM] | Ratio rCT/rAmylin binding (rat calcitonin receptor [2]) | Ratio hCT/hAmylin binding [3]
1 | K([AEEA-γGlu-C20 diacid])CNTATCATQRLARFLRHSSPNFGAIPSSTNVGSNTY-NH2 (disulfide 2-7; N-terminus assumed; SMILES CC[C@H](C)[C@H](NC(=O)[C@H](C)NC(=O)CNC(=O)[C@H](Cc1ccccc1)NC(=O)[C@H](CC(N)=O)NC(=O)[C@@H]1CCCN1C(=O)[C@H](CO)NC(=O)[C@H](CO)NC(=O)[C@H](Cc1c[nH]cn1)NC(=O)[C@H](CCCNC(=N)N)NC(=O)[C@H](CC(C)C)NC(=O)[C@H](Cc1ccccc1)NC(=O)[C@H](CCCNC(=N)N)NC(=O)[C@H](C)NC(=O)[C@H](CC(C)C)NC(=O)[C@H](CCCNC(=N)N)NC(=O)[C@H](CCC(N)=O)NC(=O)[C@@H](NC(=O)[C@H](C)NC(=O)[C@@H]1CSSC[C@H](NC(=O)[C@@H](N)CCCCNC(=O)COCCOCCNC(=O)CC[C@H](NC(=O)CCCCCCCCCCCCCCCCCCC(=O)O)C(=O)O)C(=O)N[C@@H](CC(N)=O)C(=O)N[C@@H]([C@@H](C)O)C(=O)N[C@@H](C)C(=O)N[C@@H]([C@@H](C)O)C(=O)N1)[C@@H](C)O)C(=O)N1CCC[C@H]1C(=O)N[C@@H](CO)C(=O)N[C@@H](CO)C(=O)N[C@H](C(=O)N[C@@H](CC(N)=O)C(=O)N[C@H](C(=O)NCC(=O)N[C@@H](CO)C(=O)N[C@@H](CC(N)=O)C(=O)N[C@H](C(=O)N[C@@H](Cc1ccc(O)cc1)C(N)=O)[C@@H](C)O)C(C)C)[C@@H](C)O, Analogue of human amylin; disulfide and C-terminal amide as told for h-amylin; also called compound 82) | 143 | 87 | 140
2 | K([AEEA-γGlu-C20 diacid])CNTATCATQRLANFLRHSSPNFGAIPSSTNVGHNTY-NH2 (disulfide 2-7; N-terminus assumed; SMILES CC[C@H](C)[C@H](NC(=O)[C@H](C)NC(=O)CNC(=O)[C@H](Cc1ccccc1)NC(=O)[C@H](CC(N)=O)NC(=O)[C@@H]1CCCN1C(=O)[C@H](CO)NC(=O)[C@H](CO)NC(=O)[C@H](Cc1c[nH]cn1)NC(=O)[C@H](CCCNC(=N)N)NC(=O)[C@H](CC(C)C)NC(=O)[C@H](Cc1ccccc1)NC(=O)[C@H](CC(N)=O)NC(=O)[C@H](C)NC(=O)[C@H](CC(C)C)NC(=O)[C@H](CCCNC(=N)N)NC(=O)[C@H](CCC(N)=O)NC(=O)[C@@H](NC(=O)[C@H](C)NC(=O)[C@@H]1CSSC[C@H](NC(=O)[C@@H](N)CCCCNC(=O)COCCOCCNC(=O)CC[C@H](NC(=O)CCCCCCCCCCCCCCCCCCC(=O)O)C(=O)O)C(=O)N[C@@H](CC(N)=O)C(=O)N[C@@H]([C@@H](C)O)C(=O)N[C@@H](C)C(=O)N[C@@H]([C@@H](C)O)C(=O)N1)[C@@H](C)O)C(=O)N1CCC[C@H]1C(=O)N[C@@H](CO)C(=O)N[C@@H](CO)C(=O)N[C@H](C(=O)N[C@@H](CC(N)=O)C(=O)N[C@H](C(=O)NCC(=O)N[C@@H](Cc1c[nH]cn1)C(=O)N[C@@H](CC(N)=O)C(=O)N[C@H](C(=O)N[C@@H](Cc1ccc(O)cc1)C(N)=O)[C@@H](C)O)C(C)C)[C@@H](C)O, Analogue of human amylin; disulfide and C-terminal amide as told for h-amylin; also called compound 76) | 38.9 | 56.8 | 80
3 | K([AEEA-γGlu-C20 diacid])CNTATCATQRLANFLRHSSPNFGAIPSSTNVGRNTY-NH2 (disulfide 2-7; N-terminus assumed; SMILES CC[C@H](C)[C@H](NC(=O)[C@H](C)NC(=O)CNC(=O)[C@H](Cc1ccccc1)NC(=O)[C@H](CC(N)=O)NC(=O)[C@@H]1CCCN1C(=O)[C@H](CO)NC(=O)[C@H](CO)NC(=O)[C@H](Cc1c[nH]cn1)NC(=O)[C@H](CCCNC(=N)N)NC(=O)[C@H](CC(C)C)NC(=O)[C@H](Cc1ccccc1)NC(=O)[C@H](CC(N)=O)NC(=O)[C@H](C)NC(=O)[C@H](CC(C)C)NC(=O)[C@H](CCCNC(=N)N)NC(=O)[C@H](CCC(N)=O)NC(=O)[C@@H](NC(=O)[C@H](C)NC(=O)[C@@H]1CSSC[C@H](NC(=O)[C@@H](N)CCCCNC(=O)COCCOCCNC(=O)CC[C@H](NC(=O)CCCCCCCCCCCCCCCCCCC(=O)O)C(=O)O)C(=O)N[C@@H](CC(N)=O)C(=O)N[C@@H]([C@@H](C)O)C(=O)N[C@@H](C)C(=O)N[C@@H]([C@@H](C)O)C(=O)N1)[C@@H](C)O)C(=O)N1CCC[C@H]1C(=O)N[C@@H](CO)C(=O)N[C@@H](CO)C(=O)N[C@H](C(=O)N[C@@H](CC(N)=O)C(=O)N[C@H](C(=O)NCC(=O)N[C@@H](CCCNC(=N)N)C(=O)N[C@@H](CC(N)=O)C(=O)N[C@H](C(=O)N[C@@H](Cc1ccc(O)cc1)C(N)=O)[C@@H](C)O)C(C)C)[C@@H](C)O, Analogue of human amylin; disulfide and C-terminal amide as told for h-amylin; also called compound 78) | 90.6 | 69.9 | 60.7
4 | K([AEEA-γGlu-C20 diacid])CNTATCATQRLAGFLRHSSPNFGAIPSSTPVGSNTY-NH2 (disulfide 2-7; N-terminus assumed; SMILES CC[C@H](C)[C@H](NC(=O)[C@H](C)NC(=O)CNC(=O)[C@H](Cc1ccccc1)NC(=O)[C@H](CC(N)=O)NC(=O)[C@@H]1CCCN1C(=O)[C@H](CO)NC(=O)[C@H](CO)NC(=O)[C@H](Cc1c[nH]cn1)NC(=O)[C@H](CCCNC(=N)N)NC(=O)[C@H](CC(C)C)NC(=O)[C@H](Cc1ccccc1)NC(=O)CNC(=O)[C@H](C)NC(=O)[C@H](CC(C)C)NC(=O)[C@H](CCCNC(=N)N)NC(=O)[C@H](CCC(N)=O)NC(=O)[C@@H](NC(=O)[C@H](C)NC(=O)[C@@H]1CSSC[C@H](NC(=O)[C@@H](N)CCCCNC(=O)COCCOCCNC(=O)CC[C@H](NC(=O)CCCCCCCCCCCCCCCCCCC(=O)O)C(=O)O)C(=O)N[C@@H](CC(N)=O)C(=O)N[C@@H]([C@@H](C)O)C(=O)N[C@@H](C)C(=O)N[C@@H]([C@@H](C)O)C(=O)N1)[C@@H](C)O)C(=O)N1CCC[C@H]1C(=O)N[C@@H](CO)C(=O)N[C@@H](CO)C(=O)N[C@H](C(=O)N1CCC[C@H]1C(=O)N[C@H](C(=O)NCC(=O)N[C@@H](CO)C(=O)N[C@@H](CC(N)=O)C(=O)N[C@H](C(=O)N[C@@H](Cc1ccc(O)cc1)C(N)=O)[C@@H](C)O)C(C)C)[C@@H](C)O, Analogue of human amylin; disulfide and C-terminal amide as told for h-amylin; also called compound 71) | 44.8 | 162 | 32
